Experimental data published in patent US20160060325A1 (POMONA RICERCA S R L, published 2016).

Columns and labels:
[1] = molecular target: hemagglutinin (HA) of influenza A virus H3N2, strain A/Victoria/3/75 (influenza A virus H3N2, strain …, UniProt P03435 17-567); assay: cell-based or functional assay
[2] = molecular target: hemagglutinin (HA) of influenza A virus H1N1, strain A/Malaya/302/54 (influenza A virus H1N1, strain …); assay: cell-based or functional assay
[3] = molecular target: hemagglutinin (HA) of influenza A virus H1N1, strain A/PR/8/34 (influenza A virus H1N1, strain A/PR/8/34, UniProt P03452 18-565); assay: cell-based or functional assay
[4] = molecular target: hemagglutinin (HA) of influenza A virus H3N2, strain A/PC/1/73 (influenza A virus H3N2, strain A/PC/1/73, UniProt Q1PUD9 17-566); assay: cell-based or functional assay
[5] = molecular target: HA2 subunit of hemagglutinin (individual subunit, Western blot) (influenza A virus H1N1, strain A/PR/8/34, UniProt P03452 344-565); assay: Western blot
Chain of HA2 subunit of hemagglutinin (individual subunit, Western blot) (P03452 344-565 limits assumed): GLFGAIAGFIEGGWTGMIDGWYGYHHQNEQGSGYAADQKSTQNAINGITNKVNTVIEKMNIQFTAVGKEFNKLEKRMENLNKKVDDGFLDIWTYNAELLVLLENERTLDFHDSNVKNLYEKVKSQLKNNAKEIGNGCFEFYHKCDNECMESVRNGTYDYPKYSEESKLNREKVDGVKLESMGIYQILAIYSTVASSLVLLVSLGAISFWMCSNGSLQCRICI

Chain of hemagglutinin (HA) of influenza A virus H1N1, strain A/PR/8/34 (P03452 18-565 limits assumed): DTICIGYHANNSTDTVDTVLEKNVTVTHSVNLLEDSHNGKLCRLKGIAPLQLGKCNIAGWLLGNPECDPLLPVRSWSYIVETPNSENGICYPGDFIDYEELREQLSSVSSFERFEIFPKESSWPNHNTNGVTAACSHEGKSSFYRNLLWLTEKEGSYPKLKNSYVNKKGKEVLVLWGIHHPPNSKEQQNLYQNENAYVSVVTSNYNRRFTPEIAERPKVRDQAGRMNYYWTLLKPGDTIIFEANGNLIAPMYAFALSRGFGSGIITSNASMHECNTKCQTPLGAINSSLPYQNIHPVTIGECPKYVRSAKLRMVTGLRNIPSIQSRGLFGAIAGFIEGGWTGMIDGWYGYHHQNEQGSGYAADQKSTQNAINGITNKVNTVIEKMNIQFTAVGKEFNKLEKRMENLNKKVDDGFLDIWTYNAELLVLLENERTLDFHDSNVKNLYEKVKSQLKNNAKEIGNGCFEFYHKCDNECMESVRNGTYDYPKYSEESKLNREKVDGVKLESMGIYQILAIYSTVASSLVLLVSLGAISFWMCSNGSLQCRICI
Chain of hemagglutinin (HA) of influenza A virus H3N2, strain A/Victoria/3/75 (P03435 17-567 limits assumed): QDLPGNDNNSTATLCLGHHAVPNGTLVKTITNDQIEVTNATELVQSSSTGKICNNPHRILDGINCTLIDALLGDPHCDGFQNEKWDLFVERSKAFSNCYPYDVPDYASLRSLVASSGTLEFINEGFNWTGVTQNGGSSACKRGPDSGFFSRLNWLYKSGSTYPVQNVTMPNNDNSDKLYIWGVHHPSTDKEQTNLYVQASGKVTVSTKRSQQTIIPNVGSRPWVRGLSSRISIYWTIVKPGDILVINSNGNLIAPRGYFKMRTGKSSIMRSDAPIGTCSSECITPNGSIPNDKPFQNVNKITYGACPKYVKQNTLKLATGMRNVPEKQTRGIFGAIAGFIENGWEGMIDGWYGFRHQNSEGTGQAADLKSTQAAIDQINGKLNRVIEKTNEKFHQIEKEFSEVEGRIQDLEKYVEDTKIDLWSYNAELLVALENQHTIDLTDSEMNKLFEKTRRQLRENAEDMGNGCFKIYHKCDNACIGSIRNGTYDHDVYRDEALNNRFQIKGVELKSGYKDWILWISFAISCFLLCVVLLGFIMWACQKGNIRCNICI
Chain of hemagglutinin (HA) of influenza A virus H3N2, strain A/PC/1/73 (Q1PUD9 17-566): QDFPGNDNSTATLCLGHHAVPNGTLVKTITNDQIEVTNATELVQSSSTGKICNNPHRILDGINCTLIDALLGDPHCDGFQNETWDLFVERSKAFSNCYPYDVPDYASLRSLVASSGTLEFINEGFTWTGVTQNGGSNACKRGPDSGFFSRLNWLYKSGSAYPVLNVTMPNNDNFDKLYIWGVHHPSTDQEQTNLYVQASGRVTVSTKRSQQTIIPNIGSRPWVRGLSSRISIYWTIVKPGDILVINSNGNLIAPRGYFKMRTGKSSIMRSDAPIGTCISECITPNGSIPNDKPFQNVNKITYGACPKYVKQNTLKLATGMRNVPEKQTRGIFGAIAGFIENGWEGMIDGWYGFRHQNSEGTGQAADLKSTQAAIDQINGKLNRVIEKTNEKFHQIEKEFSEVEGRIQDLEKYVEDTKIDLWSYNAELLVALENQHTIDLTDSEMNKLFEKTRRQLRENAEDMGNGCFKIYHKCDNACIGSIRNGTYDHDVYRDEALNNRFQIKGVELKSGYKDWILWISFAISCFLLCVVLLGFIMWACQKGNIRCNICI

B1: Fab28 (monoclonal antibody produced by clone INF28, human Fab fragment) (Fab, V domains shown)
VH: LEESGGGVVQPGRSLRLSCAASGFPFSSYGMHWVRQAPGKGLEWVAGVSYDGSYKYYADSVKGRFTISRDSSKSTLYLQMNSLRPEDTAVYYCARPSAIFGIYIILNGLDVWGQGTTVTVSS
VL: ELTQSPSSVSASVGDRVTITCRATQGISSWLAWYQQKPGKPPKLLIFGASSLQSGVPSRFSGSGSGTDFTLTISSLQPEDFATYFCQQAHSFPLTFGGGTKVEIK
[1]
  IC50, neutralization by plaque reduction assay, H3N2 A/Victoria/3/75: ~20 µg/mL
[2]
  IC50, neutralization by plaque reduction assay, H1N1 A/Malaya/302/54: < 2.5 µg/mL
[3]
  IC50, neutralization by plaque reduction assay, H1N1 A/PR/8/34: < 2.5 µg/mL
[4]
  IC50, neutralization by plaque reduction assay, H3N2 A/Port Chalmers/1/73: ~20 µg/mL
[5]
  binding result: no binding
